Test results reported in US20180155451A1 (published 2018).

B1: GpH7-B3 variant K326_08L/GpL16-k0 (antibody, human IgG1, kappa)
heavy: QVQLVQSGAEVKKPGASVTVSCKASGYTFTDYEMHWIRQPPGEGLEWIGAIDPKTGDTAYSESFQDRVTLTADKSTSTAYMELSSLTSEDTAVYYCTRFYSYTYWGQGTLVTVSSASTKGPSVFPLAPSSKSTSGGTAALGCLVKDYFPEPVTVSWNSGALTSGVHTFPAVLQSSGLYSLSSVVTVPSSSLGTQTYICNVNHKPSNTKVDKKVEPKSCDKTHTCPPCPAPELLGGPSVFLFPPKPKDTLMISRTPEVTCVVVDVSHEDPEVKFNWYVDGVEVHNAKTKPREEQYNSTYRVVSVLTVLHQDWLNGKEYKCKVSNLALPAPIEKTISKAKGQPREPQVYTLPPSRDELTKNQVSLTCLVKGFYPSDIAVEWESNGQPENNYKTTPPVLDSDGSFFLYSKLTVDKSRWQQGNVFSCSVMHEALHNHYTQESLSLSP
light: DIVMTQSPLSLPVTPGEPASISCQASESLVHSNRNTYLHWYLQKPGQSPQLLIYKVSNRFSGVPDRFSGSGSGTDFTLKISRVEAEDVGVYYCSQNTHVPPTFGQGTKVEIERTVAAPSVFIFPPSDEQLKSGTASVVCLLNNFYPREAKVQWKVDNALQSGNSQESVTEQDSKDSTYSLSSTLTLSKADYEKHKVYACEVTHQGLSSPVTKSFNRGEC
notes: homodimerized antibody, mutation in both H chains; also called K326_08L Ho Ab
B2: GpH7-B3 variant K326_20W/GpL16-k0 (antibody, human IgG1, kappa)
heavy: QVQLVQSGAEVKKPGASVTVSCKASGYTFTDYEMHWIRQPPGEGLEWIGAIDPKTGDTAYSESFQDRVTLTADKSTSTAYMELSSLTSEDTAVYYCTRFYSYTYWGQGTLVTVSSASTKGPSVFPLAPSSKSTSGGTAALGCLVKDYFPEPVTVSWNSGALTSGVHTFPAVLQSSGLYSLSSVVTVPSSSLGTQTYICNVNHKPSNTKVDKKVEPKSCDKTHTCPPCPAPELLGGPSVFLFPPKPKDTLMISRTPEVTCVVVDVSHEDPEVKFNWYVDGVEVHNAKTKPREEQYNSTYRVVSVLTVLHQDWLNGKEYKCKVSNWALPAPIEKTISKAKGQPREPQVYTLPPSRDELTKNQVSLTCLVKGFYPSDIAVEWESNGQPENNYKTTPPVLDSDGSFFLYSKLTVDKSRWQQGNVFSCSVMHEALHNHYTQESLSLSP
light: DIVMTQSPLSLPVTPGEPASISCQASESLVHSNRNTYLHWYLQKPGQSPQLLIYKVSNRFSGVPDRFSGSGSGTDFTLKISRVEAEDVGVYYCSQNTHVPPTFGQGTKVEIERTVAAPSVFIFPPSDEQLKSGTASVVCLLNNFYPREAKVQWKVDNALQSGNSQESVTEQDSKDSTYSLSSTLTLSKADYEKHKVYACEVTHQGLSSPVTKSFNRGEC
notes: homodimerized antibody, mutation in both H chains; also called K326_20W Ho Ab
B3: GpH7-B3 variant K326_19Q/GpL16-k0 (antibody, human IgG1, kappa)
heavy: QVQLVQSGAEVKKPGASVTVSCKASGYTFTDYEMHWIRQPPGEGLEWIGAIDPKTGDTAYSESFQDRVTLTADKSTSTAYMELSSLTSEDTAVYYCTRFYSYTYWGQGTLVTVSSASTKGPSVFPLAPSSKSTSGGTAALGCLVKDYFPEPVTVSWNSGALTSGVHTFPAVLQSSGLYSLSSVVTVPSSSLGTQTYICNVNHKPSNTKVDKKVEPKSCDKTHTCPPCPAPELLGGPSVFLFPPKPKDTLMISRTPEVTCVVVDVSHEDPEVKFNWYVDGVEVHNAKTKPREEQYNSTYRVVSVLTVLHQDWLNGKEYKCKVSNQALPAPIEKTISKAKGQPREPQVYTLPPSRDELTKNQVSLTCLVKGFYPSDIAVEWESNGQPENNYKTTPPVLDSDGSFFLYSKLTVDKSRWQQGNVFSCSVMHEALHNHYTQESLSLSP
light: DIVMTQSPLSLPVTPGEPASISCQASESLVHSNRNTYLHWYLQKPGQSPQLLIYKVSNRFSGVPDRFSGSGSGTDFTLKISRVEAEDVGVYYCSQNTHVPPTFGQGTKVEIERTVAAPSVFIFPPSDEQLKSGTASVVCLLNNFYPREAKVQWKVDNALQSGNSQESVTEQDSKDSTYSLSSTLTLSKADYEKHKVYACEVTHQGLSSPVTKSFNRGEC
notes: homodimerized antibody, mutation in both H chains; also called K326_19Q Ho Ab
B4: GpH7-B3 variant K334_04F/GpL16-k0 (antibody, human IgG1, kappa)
heavy: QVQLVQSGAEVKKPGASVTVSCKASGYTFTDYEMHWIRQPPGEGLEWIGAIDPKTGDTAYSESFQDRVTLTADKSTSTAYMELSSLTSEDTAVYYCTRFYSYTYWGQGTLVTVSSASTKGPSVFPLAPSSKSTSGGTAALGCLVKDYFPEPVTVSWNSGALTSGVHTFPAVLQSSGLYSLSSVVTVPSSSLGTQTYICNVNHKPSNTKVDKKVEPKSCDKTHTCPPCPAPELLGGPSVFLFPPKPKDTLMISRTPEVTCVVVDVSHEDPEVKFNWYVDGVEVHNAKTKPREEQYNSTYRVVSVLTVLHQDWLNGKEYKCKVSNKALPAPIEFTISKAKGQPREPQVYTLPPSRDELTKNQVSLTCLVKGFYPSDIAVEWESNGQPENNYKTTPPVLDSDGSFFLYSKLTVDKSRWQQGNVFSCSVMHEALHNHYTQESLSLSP
light: DIVMTQSPLSLPVTPGEPASISCQASESLVHSNRNTYLHWYLQKPGQSPQLLIYKVSNRFSGVPDRFSGSGSGTDFTLKISRVEAEDVGVYYCSQNTHVPPTFGQGTKVEIERTVAAPSVFIFPPSDEQLKSGTASVVCLLNNFYPREAKVQWKVDNALQSGNSQESVTEQDSKDSTYSLSSTLTLSKADYEKHKVYACEVTHQGLSSPVTKSFNRGEC
notes: homodimerized antibody, mutation in both H chains; also called K334_04F Ho Ab
B5: GpH7-B3 variant K334_02A/GpL16-k0 (antibody, human IgG1, kappa)
heavy: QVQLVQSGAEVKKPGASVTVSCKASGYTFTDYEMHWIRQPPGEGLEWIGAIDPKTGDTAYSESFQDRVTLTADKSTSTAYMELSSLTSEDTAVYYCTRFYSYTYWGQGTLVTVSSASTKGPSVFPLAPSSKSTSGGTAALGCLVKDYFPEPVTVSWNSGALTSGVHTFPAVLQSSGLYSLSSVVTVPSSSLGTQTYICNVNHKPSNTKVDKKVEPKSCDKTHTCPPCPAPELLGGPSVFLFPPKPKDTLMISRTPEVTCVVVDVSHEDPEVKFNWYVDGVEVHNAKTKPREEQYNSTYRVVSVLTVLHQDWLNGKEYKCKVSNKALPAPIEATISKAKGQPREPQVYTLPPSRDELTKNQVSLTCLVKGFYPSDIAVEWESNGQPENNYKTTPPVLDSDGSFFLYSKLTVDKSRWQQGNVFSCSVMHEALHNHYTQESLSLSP
light: DIVMTQSPLSLPVTPGEPASISCQASESLVHSNRNTYLHWYLQKPGQSPQLLIYKVSNRFSGVPDRFSGSGSGTDFTLKISRVEAEDVGVYYCSQNTHVPPTFGQGTKVEIERTVAAPSVFIFPPSDEQLKSGTASVVCLLNNFYPREAKVQWKVDNALQSGNSQESVTEQDSKDSTYSLSSTLTLSKADYEKHKVYACEVTHQGLSSPVTKSFNRGEC
notes: homodimerized antibody, mutation in both H chains; also called K334_02A Ho Ab
B6: GpH7-B3 variant K326_10E/GpL16-k0 (antibody, human IgG1, kappa)
heavy: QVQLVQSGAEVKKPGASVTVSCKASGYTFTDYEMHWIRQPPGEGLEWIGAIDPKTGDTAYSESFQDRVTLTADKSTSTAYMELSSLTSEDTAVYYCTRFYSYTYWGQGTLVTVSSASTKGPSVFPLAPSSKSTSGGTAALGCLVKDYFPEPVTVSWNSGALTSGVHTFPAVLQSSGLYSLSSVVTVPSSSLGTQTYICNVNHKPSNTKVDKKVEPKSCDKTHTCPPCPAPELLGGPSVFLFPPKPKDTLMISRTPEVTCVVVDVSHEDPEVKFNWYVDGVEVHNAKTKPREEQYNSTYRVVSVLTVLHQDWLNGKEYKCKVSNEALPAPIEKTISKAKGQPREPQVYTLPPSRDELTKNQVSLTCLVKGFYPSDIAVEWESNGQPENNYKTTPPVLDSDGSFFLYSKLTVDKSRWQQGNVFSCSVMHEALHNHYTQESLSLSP
light: DIVMTQSPLSLPVTPGEPASISCQASESLVHSNRNTYLHWYLQKPGQSPQLLIYKVSNRFSGVPDRFSGSGSGTDFTLKISRVEAEDVGVYYCSQNTHVPPTFGQGTKVEIERTVAAPSVFIFPPSDEQLKSGTASVVCLLNNFYPREAKVQWKVDNALQSGNSQESVTEQDSKDSTYSLSSTLTLSKADYEKHKVYACEVTHQGLSSPVTKSFNRGEC
notes: homodimerized antibody, mutation in both H chains; also called K326_10E Ho Ab
B7: GpH7-B3 variant K326_09D/GpL16-k0 (antibody, human IgG1, kappa)
heavy: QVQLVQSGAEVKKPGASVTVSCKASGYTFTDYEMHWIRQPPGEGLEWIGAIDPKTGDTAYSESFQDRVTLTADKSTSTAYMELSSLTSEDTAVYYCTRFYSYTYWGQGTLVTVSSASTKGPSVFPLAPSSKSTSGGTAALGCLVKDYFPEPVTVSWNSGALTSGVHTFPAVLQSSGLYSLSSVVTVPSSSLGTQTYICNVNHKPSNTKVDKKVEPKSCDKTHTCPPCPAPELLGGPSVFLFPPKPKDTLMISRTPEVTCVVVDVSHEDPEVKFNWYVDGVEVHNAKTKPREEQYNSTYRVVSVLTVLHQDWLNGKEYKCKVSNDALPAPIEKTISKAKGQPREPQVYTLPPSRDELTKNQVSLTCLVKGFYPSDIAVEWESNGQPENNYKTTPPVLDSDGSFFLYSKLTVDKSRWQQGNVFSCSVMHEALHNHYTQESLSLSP
light: DIVMTQSPLSLPVTPGEPASISCQASESLVHSNRNTYLHWYLQKPGQSPQLLIYKVSNRFSGVPDRFSGSGSGTDFTLKISRVEAEDVGVYYCSQNTHVPPTFGQGTKVEIERTVAAPSVFIFPPSDEQLKSGTASVVCLLNNFYPREAKVQWKVDNALQSGNSQESVTEQDSKDSTYSLSSTLTLSKADYEKHKVYACEVTHQGLSSPVTKSFNRGEC
notes: homodimerized antibody, mutation in both H chains; also called K326_09D Ho Ab
B8: GpH7-B3 variant K334_05P/GpL16-k0 (antibody, human IgG1, kappa)
heavy: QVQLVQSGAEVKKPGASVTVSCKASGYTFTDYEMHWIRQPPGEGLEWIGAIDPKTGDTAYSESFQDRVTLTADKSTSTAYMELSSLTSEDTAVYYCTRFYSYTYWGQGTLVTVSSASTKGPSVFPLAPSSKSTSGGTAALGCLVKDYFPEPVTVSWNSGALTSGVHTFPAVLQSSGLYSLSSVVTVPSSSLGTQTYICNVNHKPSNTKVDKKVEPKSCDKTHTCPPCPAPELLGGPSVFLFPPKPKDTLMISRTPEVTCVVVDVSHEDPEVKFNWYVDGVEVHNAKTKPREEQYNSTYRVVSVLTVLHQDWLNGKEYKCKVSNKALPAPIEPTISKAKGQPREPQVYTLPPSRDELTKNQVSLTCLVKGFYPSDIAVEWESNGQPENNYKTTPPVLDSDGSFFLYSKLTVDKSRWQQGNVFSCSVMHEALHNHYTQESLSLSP
light: DIVMTQSPLSLPVTPGEPASISCQASESLVHSNRNTYLHWYLQKPGQSPQLLIYKVSNRFSGVPDRFSGSGSGTDFTLKISRVEAEDVGVYYCSQNTHVPPTFGQGTKVEIERTVAAPSVFIFPPSDEQLKSGTASVVCLLNNFYPREAKVQWKVDNALQSGNSQESVTEQDSKDSTYSLSSTLTLSKADYEKHKVYACEVTHQGLSSPVTKSFNRGEC
notes: homodimerized antibody, mutation in both H chains; also called K334_05P Ho Ab
B9: GpH7-B3 variant K334_03V/GpL16-k0 (antibody, human IgG1, kappa)
heavy: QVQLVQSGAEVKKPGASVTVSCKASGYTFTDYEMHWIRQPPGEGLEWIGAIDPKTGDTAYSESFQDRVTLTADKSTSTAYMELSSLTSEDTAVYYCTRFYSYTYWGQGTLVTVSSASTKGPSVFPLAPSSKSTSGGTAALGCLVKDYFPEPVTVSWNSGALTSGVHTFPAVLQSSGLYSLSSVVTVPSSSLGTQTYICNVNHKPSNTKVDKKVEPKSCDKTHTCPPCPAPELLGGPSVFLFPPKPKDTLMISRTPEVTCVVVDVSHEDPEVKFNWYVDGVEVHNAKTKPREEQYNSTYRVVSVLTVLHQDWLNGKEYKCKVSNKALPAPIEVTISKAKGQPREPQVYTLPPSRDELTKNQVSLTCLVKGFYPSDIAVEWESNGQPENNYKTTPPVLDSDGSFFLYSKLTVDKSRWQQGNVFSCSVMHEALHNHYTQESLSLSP
light: DIVMTQSPLSLPVTPGEPASISCQASESLVHSNRNTYLHWYLQKPGQSPQLLIYKVSNRFSGVPDRFSGSGSGTDFTLKISRVEAEDVGVYYCSQNTHVPPTFGQGTKVEIERTVAAPSVFIFPPSDEQLKSGTASVVCLLNNFYPREAKVQWKVDNALQSGNSQESVTEQDSKDSTYSLSSTLTLSKADYEKHKVYACEVTHQGLSSPVTKSFNRGEC
notes: homodimerized antibody, mutation in both H chains; also called K334_03V Ho Ab

Biological target: T1, FcγRIa extracellular domain with C-terminal His tag (human, UniProt P12314 16-292)
T1 construct: extracellular domain; soluble analyte in Biacore; also called FcgRI; CD64
Experiment: SPR (Biacore), relative FcγRIa binding, GpH7-B3/GpL16-k0 (HoCon Ab) = 100

T1 sequence (P12314 16-292): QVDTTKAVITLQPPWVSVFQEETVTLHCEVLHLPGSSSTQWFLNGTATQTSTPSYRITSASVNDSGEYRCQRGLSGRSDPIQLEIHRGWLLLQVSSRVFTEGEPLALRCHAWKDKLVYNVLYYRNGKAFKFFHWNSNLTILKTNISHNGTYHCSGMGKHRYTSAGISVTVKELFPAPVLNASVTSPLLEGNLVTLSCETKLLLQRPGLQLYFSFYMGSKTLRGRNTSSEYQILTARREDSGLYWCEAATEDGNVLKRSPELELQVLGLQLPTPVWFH

Q: B1 was tested. Which Ho/Con_1a did it give?
A: The Ho/Con_1a was 101 % of control.

Q: With B2 as the binder, how does the Ho/Con_1a read?
A: Its Ho/Con_1a is 104 % of control.

Q: For B3, which Ho/Con_1a is on record?
A: Its Ho/Con_1a is 105 % of control.

Q: For B4, which Ho/Con_1a is on record?
A: Its Ho/Con_1a is 106 % of control.

Q: Which Ho/Con_1a does the source give for B5 here?
A: Its Ho/Con_1a is 106 % of control.

Q: B6 was tested. Which Ho/Con_1a did it give?
A: Its Ho/Con_1a is 105 % of control.

Q: B7 was tested. Which Ho/Con_1a did it give?
A: The Ho/Con_1a was 106 % of control.

Q: With B8 as the binder, how does the Ho/Con_1a read?
A: The Ho/Con_1a was 106 % of control.

Q: B9 was tested. Which Ho/Con_1a did it give?
A: Its Ho/Con_1a is 105 % of control.
